{"source": "paper PMC6042779", "biological_target": "SRC (UniProt P12931)", "assay": "bead-immobilized peptide pulldown of SRC-GST", "settings": "reference: nonphosphorylated FAK peptide; sites Y397"}
{"substance": "FAK FERM-kinase linker region, 358-409 (from UniProt P34152) pY397 FAK peptide", "values": [{"measurement": "binding against the reference", "value": "gained"}]}
